Kd and IC50 data for two sequences are collected here from patent publication US20090054362.

In data set [1] the target is gp120 (SU envelope glycoprotein) (HIV-1 Ba-L) (UniProt P03375). Put plainly: EMSA. Particulars: 2'-F C and U, tRNA, room temp, also dose-dependent SPR. For orientation: Mobility shift assays separate free from complexed probe on a gel.
The target in data set [2] is HIV-1 Ba-L virus (envelope gp120) (HIV-1 Ba-L) (UniProt P03375). Put plainly: cell_activity. As to conditions: 2'-F C and U; neutralization in human PBMCs, p24 ELISA. A general note: An ELISA detects its analyte on a solid surface through an enzyme-linked reagent.

Turning to “GGGAGACAAGACUAGACGCUCAAUGUGGGCCACGCCCGAUUUUACGCUUUUACCCGCACGCGAUUGGUUUGUUUCCC [B40t77]”, in data set [1] (1x cHBS), the equilibrium dissociation constant (Kd) (commonly the constant that tells how readily two partners part at equilibrium) is 31 nM. In data set [2], the IC50 (as a rule, the point on the concentration scale where inhibition reaches its midpoint) is 2 nM.

As to “GGGAGACAAGACUAGACGCUCAAUGUGGGCCACGCCCGAUUUUACGCUUUUACCCGCACGCGAUUGGUUUGUUUUCGACAUGAGACUCACAACAGUUCCCUUUAGUGAGGGUUAAUU [B40]”, the Kd in data set [1] (1x cHBS (10 mM HEPES pH 7.4, 150 mM NaCl, 1 mM CaCl2, 1 mM MgCl2, 2.7 mM KCl)) was 21 nM. Moreover, the IC50 in data set [2] was 2 nM.
